Earlier results, collected in patent US20230365625A1, “METHODS FOR TREATING AND/OR PREVENTING UNDESIRABLE SEQULAE OF NASAL TURBINOPLASTY OR FUNCTIONAL ENDOSCOPIC SINUS SURGERY” (3-D Matrix, Ltd., priority 2022, published 2023).
Entries after “also recorded” stand apart in the source; their conditions may differ. Where two headings read alike, the source gives them in different places.

Key:
[1] = 1% in water; cited from earlier work
[2] = RADA16 2.5%, IEIK13 1.3%, QLEL12 0.15% in water; result in words; cited from earlier work
[3] = system: punch hole injuries to the liver; conditions: pig, in vivo; cited from earlier work
[4] = cited from earlier work
[5] = cited from earlier work; remark: listed apart in the source
[6] = in solution before DMEM, RADA16 assumed 2.5% wt/vol, IEIK13 concentration unknown

| Substance | Increase in storage modulus G′ after DMEM treatment relative to before [1] | Storage modulus after DMEM treatment [1] | Effect of gamma-irradiation sterilization [2] | Inflammatory cell infiltration due to the gel in the wound [3] | Storage modulus G′ ([4]; 1% in water) | Gel stiffness compared to RADA16 ([5]; exposed to physiological conditions, result in words) | Median loss modulus G″ [5, 6] | Median storage modulus G′ [5, 6] | Storage modulus G′ ([4]; 1.5% in water) | Storage modulus G′ ([4]; 2.5% in water) |
| --- | --- | --- | --- | --- | --- | --- | --- | --- | --- | --- |
| Ac-IEIKIEIKIEIKI-NH2 [IEIK13] | 7.4 fold | 5314 Pa | enhanced the rheological properties | absence if inflammatory cell infiltration | ~700 Pa | forms a stiffer gel; also recorded: form a stiffer hydrogel matrix | 116 Pa | 1145 Pa | – | – |
| KLDKLDKLDKLD [KLD12] | 23.9 fold | – | – | – | – | – | – | – | about 350 Pa | ~700 Pa |
| Ac-QLELQLELQLEL-NH2 [QLEL12, self-assembling peptide] | – | – | significant degradation and viscosity drop | – | – | – | – | – | – | – |
